# Reference: the DeepSol protein solubility set
# Experiment: soluble on expression in E. coli; label from the status in PepcDB or PDB records
row,Sequence,soluble on expression in E. coli
1,MSLINDLRTVPAALDRLVRQLPDHTALIAEDRRFTSTELRDAVYGAAAALIALGVEPADRVAIWSPNTWHWVVACLAIHHAGAAVVPLNTRYTATEATDILDRAGAPVLFAAGLFLGADRAAGLDRAALPALRHVVRVPVEADDGTWDEFIATGAGALDAVAARAAAVAPQDVSDILFTSGTTGRSKGVLCAHRQSLSASASWAANGKITSDDRYLCINPFFHNFGYKAGILACLQTGATLIPHVTFDPLHALRAIERHRITVLPGPPTIYQSLLDHPARKDFDLSSLRFAVTGAATVPVVLVERMQSELDIDIVLTAYGLTEANGMGTMCRPEDDAVTVATTCGRPFADFELRIADDGEVLLRGPNVMVGYLDDTEATAAAIDADGWLHTGDIGAVDQAGNLRITDRLKDMYICGGFNVYPAEVEQVLARMDGVADAAVIGVPDQRLGEVGRAFVVARPGTGLDEASVIAYTREHLANFKTPRSVRFVDVLPRNAAGKVSKPQLRELGEGHHHHHH,not soluble
2,MGSDKIHHHHHHMLTYDLTKTDGPLYKCLYECIKNDISQGKLSSGEKMPSKRTLAKNLGVSTITVENAYDQLIGEGYMFARPKKGYFIADVSDIRVIKAPVQKELSIKLPPEQDESIFDFSSNRTDSGNFPFSIWAKLMRETISLREQELLSVSPCGGVRELREAIASHLSSFRGMNVDPDQIIVGAGTEYLYGLLVKLLGTDKVYCVEDPGYKKISQIYECNNAKCLPVQMDEQGISVELIKKANAQIAHISPTHHFPTGITMPVNRRYELLAWANESSDRYIIEDDYDSEFRMNGHPIPPILSIDACEKVIYINTFSKSLTSTIRISYMVLPEHLANEFYRRLSFYSCTVSTFEQYTLARFISEGYFEKHINRMRLHYGRKRQSVLSSIKGCFTEKECRVIENDSGLHFIIQFDTNLPDKTVEERLLKKGIKLQAITHFNLIKPKEDRHQFIINYSNIDADRIMDELLIIKDTIL,not soluble
3,MGSDKIHHHHHHMSAYPPLNSLRIFEAAARLESFSAAAGELFVTHGAVSKQIKQLEDWLGVQLFERSGGRVRLTDAGWRYLVQVQDGLDLIANATSQLLQPNRQRRLTINSTPTFAAFWLLPRLAGFRSQLPELELHLVTSDRDLSRLDAPFDVAIRRGPGDWPGHIAKPFLKEWELPLCSPALLSRQPLAQAADLTQHTLLHADTRPTAWPRWLTLAGAPELKPACSLHFDKFSLALQAAVDGLGVVLGPLPMAHELIAAGKLVSPLPGPVVTVRDYCWVVPRMSAEDATVATFCRWLEGEAEKAGLSGVESG,not soluble
4,SMSPEPDCQKQFQAAVSVIQNLPKNGSYRPSYEEMLRFYSYYKQATMGPCLVPRPGFWDPIGRYKWDAWNSLGKMSREEAMSAYITEMKLVAQKVIDTVPLGEVAE,soluble
5,MRIKPECALCITRQVVDVAKEITDDKSEQFKIIAWGIEKISEAYGESSVPSFMGTEIHRHIKKMSKNSDPYKNLKNVANEFALKYLNDVEKLLESDDELERLQNKVKLSIAGNVIDFGPYSTGVNIEKMVKDTLDGKLDVDFSKELLDELKNSKKVFYTCDNAGEIVFDLPLIKELKNYVEVVVSVKGSPILNDATLDDVKTAGIDKVTKVITSGTDAIGVRFEESSEEFINELNSSDFVIAKGMGNYESLTEYEEKHGQNSEKIPVYYILKAKCEPVAEHIGVSEGDNVLLRKEISKVLEHHHHHH,soluble
6,MNPKHSCTNFGADIPVNSQLIVTTSELRQKLKEKNKFILVDNRTWDEHIGKVSGYTYYDKKGRIPGALYGHSGSDSVSLEEYRNIDNTMRNKYEILEMWDKENIDVNKQLIFMCGSGWRAAEVLTYANVIGVENTSLYSDGWMGWSLDNSNLIEVGEHKLEHHHHHH,not soluble
7,MITFEKVTVENESVVKEMFKSHSLGEKKVQYCVKVDDTYIGVIDYSVQEERAVLSQLIIHFDYQGYGYGTNTYFTFEEMMKQRNVKEIKVLKEKLTEKAKSFIESFGFTSEDEEYVKKI,not soluble
8,MLKKIREEFGCIFARDPAAQSFFEILTVYPGVHAVLIHRFSHWLWNHGLHWPARVLSYLARWATGIEIHPGATLGRRLFIDHGMGVVIGETAVIGDDCTLYHGVTLGGTSWQKGKRHPTLGNGVVVGAGAKVLGPITVGDGARIGSNSVVLRTVPAGATVVGIPGHIINPDRRAQEAQRLAIASRLGFDAYGMTPDMPDPVAHAINHMLDHIQALDQQVAKLKEVLRERGIDLEEAPLPDLDDCQLDPGEPQVTVNSSRTGLEHHHHHH,soluble
9,MGSDKIHHHHHHMIRMNISVRNLKEITDLLSTIVSEAKFKVDENGMSVTAVDPAHVAMIRLEVPKEVFSEFRSDGTEEIALDIDRLKSVIRLANSSENVGITKDKEKLKFDLGNISKSVSLLDPSTIVTPKIPNIASEYYAIIKRSDFERGLRAAEDISDSIRFVLSSEGFRATSHSESEESEMVLPKDMLSDLSCSDTIKSSYPLEYLLKFIKAVSSADSLKISFRDDYPLSIEFYLDQNPSAKIKGLFLLAPRMEQ,not soluble
10,MGDFREVLFYHSETKHYPYRFARSLGYLDWENQPNPFRFWEGTERLDLPLLKDPSHPYEALYDYGLVNTEEFNVKSLSKFLELALGLSAWKAIPGSRWSVRMNPSSGNLHPTECYVIIPHLGGLQGVFHYNPFLHALEKRADIPYELSQKIKDFFGTEGFILILTSIPWRESWKYGERAYRYCLLDTGHAIGSVRFSANLKGWKVKYLNALSDKDLEILLGFDRVQWVEGEEEFPELALFVFPKEVQDVPRTIPESIINEFKKLNFYGRPNVLSKERVIWEIIYRAIKETEKPRTEEFRVIYGNPPILNLVPSYMSAEEVIRKRRSGMAYDGKTYILRELFIHALDKTLPRDNYSPFDVEIGLPFVNLFIFVNRVENLPKGLYCFVRNEELLKDLKEITSSEFLWEKVFEDFPLYLLKTGDFREVAGFVACAQDIASDSAFSLGMISLFEPVLREEPWFYRNLHWEAGLIGQVLYLEATAHNLNGTGIGCFFDDAMHEVLGISDKTFQDLYHFTFGKAVEDPRIQTIEPYYHLKRERR,not soluble
11,MGSDKIHHHHHHMQPMDAEVLRILRKNNKSQDWGKINKKLHPKIVKYVDGKPVYQFFDTLNDNSFEKNGQLISIRTQPVNSFVPYHVHNYVEMMVVLSGRCVIKTQSESITLIQDEIMIIGCKTIHKIKPINDETIVVEIALKRTAFSLRDLTFLTHSRDAQSVSSTVFFLLSNDDSYGAFNVFHTQHDVNVVNKVNNIIREYYRPDNYSNQVIKFKILELFIRLVRLASKGPILQTQKEDHKNNEVDALTLLLYIEKNYKTVTLKSMAKHFKFHPNYLSSILKRKTGYTFIKLVHLQRINVAAEYLSLTDISIESISLAVGYEDPSCFYKIFRNHMGCSPREYRQRQAA,not soluble
12,MAHVVVLGAGLGGSIMAYELHQQLRSEDRITVVTRDPTYHFVPSNPWVAVGWRTRSHISADLAPTMQRLGIAFRTVPATRLVPAENRVELADGTALDYDYLVVATGPELAFDEIEGFGPEGHTQSICHVDHAEAAHAAFERFCENPGPIVVGAAQGASCFGPAYEFAFILDAALRRRRIRDRVPMTFVTSEPYIGHLGLDGVGDTKGLLESALRSRHIKWITSARISRVEAGTMHVEEVAEGGATKPHALPFGYAMMLPAFRGVKAVSGIEGLSNPRGFTLVDPHQRNPTFPNIFAVGVCVAIPPMGVTPVPVGVPKTGFMIESMVTATAHNIGALVRGKEPDEVATWNAVCLADFGDRGIAFIAQPQIPPRNVNWSAEGRWVHFAKIAFEKYFLRKVKLGTAEPLYEWAAMKMLGIDKLKAARKGLEHHHHHH,not soluble
13,MNNMTDLKAIQARSLEMAEYFVAFCKEHDLLCYLCGGGAIGALRNKGFIPWDDDLDFFMPRKDYEKLAELWPRYADERYFLSKSHKDFVDRNLFITIRDKKTTCIKPYQQDLDLPHGLALDVLPLDYYPKNPAERKKQVRWALIYSLFCAQTIPEKHGDLMKWGSRILLGLTPKSLRYRIWKKAEKEMTKYDLADCDGITELCSGPGYMRNKYPITSFEDNLFLPFEGTEMPIPIGYDVYLRTAFGDYMTPPPADKQVPHHDAVIADMDKSYTEYKGEYGGLEHHHHHH,soluble
14,MSKQIVILGAGYGGLLAALNVRKYYSKSEAQVTVINQYPTHQIITELHRLAAGNVSEQAVAMPLTKLFKGKDIDLKIATVESFSVDSKEIKLAGGTTLSYDALVVALGSKTAYFGIPGLEENSMVLKSAADANKIYKHVEDRIREYAKTKNEADATIVIGGGGLTGVELVGELADIMPKLAKSHGVNPKEVKLLLVEAGPKILPVLPDHLIERATTSLEARGVTFLTGLPVTNVAGNEIDLKDGQKLVANTFVWTGGVQGNPLIGESGLEVNRGRATVDAYLQSTSHKDVFVAGDSAVVFAPDGRPYPPTAQIAWQMGELIGYNLYAALEGKAFEEFAPVNSGTLASLGRKDAVATIGASNTPLKGLPASLMKEASNVRYLSHIKGLFSLAY,not soluble
15,MQTPHILIVEDELVTRNTLKSIFEAEGYDVFEATDGAEMHQILSEYDINLVIMDINLPGKNGLLLARELREQANVALMFLTGRDNEVDKILGLEIGADDYITKPFNPRELTIRARNLLSRTMQ,soluble
16,MGSDKIHHHHHHMKVLLYLEAEEYLKKSGIGRAIKHQEKALQIAGIDYTTNPTDDFDLVHMNTYGIRSWLLMSKAKKTGKKVIMHGHSTEEDFRNSFIGSNLVSPLFKWYLCRFYQKADAIITPTDYSKQLIKAYGIKKPIFVLSNGIDLSRYQRSEKKESAFRHYFHLSKDDKVVMGAGLYFMRKGIDQFVEVAAKMPDIRFIWFGETNKWVIPRKVRQIVTKQHPSNVTFAGYIKGDVYEGAMSASDAFFFPSREETEGIVVLEALASHQHVVLRDIPVYHGWVTEDSVELATDVDGFVEKLDKVLSGKSDKIKEGYHVAESRSIERIAHELASVYQKVMEL,not soluble
17,MSNPLAVDVPTFTKLHNVAQWLSQQPPSPRLFDQKENGFSQNFQPFLKTVNSCTIPDDLHEEMMRLKRKENAFKTALCKTFQLTRACSYGEQCKFAHSVEELQLKQKNRGVNHPKYKTVLCDNFSRTGHCKYGTKCQFIHRAVEPTPAQNPLMPQFSSWFAPSSGLSREFLDNFGASASSSSTDFS,not soluble
18,LRTGIDNVLRAKTGGLIVLGYNENMKGIVDGGFYLDCPFSPASLYELAKMDGAIILNEDGTKILYANTQLNPDNAISSNETGIRHRTAERVAKQTGNLVISISQRRNVITLYHGHL,soluble
19,MMFLRQEDFATVVRSTPLVSLDFIVENSRGEFLLGKRTNRPAQGYWFVPGGRVQKDETLEAAFERLTMAELGLRLPITAGQFYGVWQHFYDDNFSGTDFTTHYVVLGFRFRVSEEELLLPDEQHDDYRWLTSDALLASDNVHANSRAYFLAEKRTGVPGL,soluble
20,MSLGYAFPSILGNLMSKIYQMDAVDWLKTLENCSVDLFITDPPYESLEKYRQIGTTTRLKESKSSSNQWFSVFPNTRFEELFREVYRVLKKGSHFYLFCDQETMFLAKPIAESVGFKFWKPIVWDKCAIGMGYHYRARYEFILFFEKGKRKLNDLSVPDVLEYKRVWKGYPTEKPVELLEVLIRQSSSENEIVADSFFGSGSTLIAANNLSRKYIGCDISSSAHEYFKNRAEGHHHHHH,soluble
21,MEWKGRDVISIRDFSKEDIEVVLSTAERLEKEMKEKGQLEYAKGKILATLFFEPSTRTRLSFESAMHRLGGSVIGFAEASTSSVKKGESLRDTIKTVEQYSDVIVIRHPKEGAARLAAEVADIPVINAGDGSNQHPTQTLLDLYTIKKEFGTIDGLKIGLLGDLKYGRTVHSLAEALAFYDVELYLISPELLRMPKHIVEELRERGMKIVETTKLEEVIGELDVLYVTRIQKERFPDEQEYLKVKGSYQVNLKILENVKDSLRIMHPLPRVDEIHPEVDKTKHAIYFKQVFNGVPVRMALLALVLGVI,soluble
